Results on 22 molecules are retold here after paper PMC314469, “Protein Interaction Networks by Proteome Peptide Scanning” (PLoS Biology, 2004).

The chains are these.
B1: YJL200C 564-577 (peptide)
chain: PNSDRLQLLEPFKP
B2: YLR224W 322-335 (peptide)
chain: PRDTIIGHGLPYKP
B3: YCR094W 11-23 (peptide)
chain: PPLTKEGPTSKKP
B4: YJL123C 260-272 (peptide)
chain: PNNNGITPVEKKP
B5: YCR034W 17-29 (peptide)
chain: PQLHDYLPTLERP
B6: YHL029C 305-318 (peptide)
chain: PLPFELRSKLPTKP
B7: YLR174W 115-127 (peptide)
chain: PRIPRLVPQWEKP
B8: YPL204W 411-423 (peptide)
chain: PQQLQQQPNGQRP
B9: YBL013W 258-270 (peptide)
chain: PQNRVQAPTAYKP
B10: YDL066W 131-143 (peptide)
chain: PRIPRLVPRWEKP
B11: YOL019W 423-435 (peptide)
chain: PRETAAGPANIRP
B12: YMR109W 1073-1085 (peptide)
chain: PPPPPPPPPSSKP
B13: YIR006C 205-218 (peptide)
chain: PPPQQAQSLQPLKP
B14: YJR016C 466-478 (peptide)
chain: PRGAPGMPEMLKP
B15: YER086W 492-505 (peptide)
chain: PNERIISFEFPERP
B16: YOR117W 130-142 (peptide)
chain: PMVGLVDPDKLKP
B17: YLR176C 127-139 (peptide)
chain: PPLIGSGPGSHKP
B18: YJL060W 83-95 (peptide)
chain: PMVNQYSPTRGRP
B19: YMR016C 338-351 (peptide)
chain: PLYDGNSITPPVKP
B20: YER172C 458-471 (peptide)
chain: PQYDEIHIPAPSKP
B21: YPL243W 529-541 (peptide)
chain: PLKPKMLPIPSKP
B22: YER064C 414-427 (peptide)
chain: PLVSSNKQSNPMRP

The target of this assay is T1, Abp1 SH3 (ABP1_YEAST), P15891.
T1 chain: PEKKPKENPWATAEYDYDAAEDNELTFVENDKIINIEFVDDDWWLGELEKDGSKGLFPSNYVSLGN
Put plainly: SPOT array.
As to B1, the normalised SPOT signal, Boehringer light units (BLU); mean over the file's lines of this peptide came out at 98.6.

B2 gave a normalised SPOT signal, Boehringer light units (BLU); mean over the file's lines of this peptide of 46.8. Molecule B3 came in with a normalised SPOT signal, Boehringer light units (BLU); mean over the file's lines of this peptide of 200. As to B4, the normalised SPOT signal, Boehringer light units (BLU); mean over the file's lines of this peptide was 0. B5 showed a normalised SPOT signal, Boehringer light units (BLU); mean over the file's lines of this peptide of 0. For the molecule B6, the normalised SPOT signal, Boehringer light units (BLU); mean over the file's lines of this peptide worked out at 2670. Consider B7, for which the normalised SPOT signal, Boehringer light units (BLU); mean over the file's lines of this peptide came to 698. Under B8 stands 128; under B9, 287; under B10, 3910. As for B11, the normalised SPOT signal, Boehringer light units (BLU); mean over the file's lines of this peptide was -0. B12 returned a normalised SPOT signal, Boehringer light units (BLU); mean over the file's lines of this peptide of 117.

Regarding B13, the normalised SPOT signal, Boehringer light units (BLU); mean over the file's lines of this peptide was found to be 188. Turning to B14, the normalised SPOT signal, Boehringer light units (BLU); mean over the file's lines of this peptide came to 146. For B15, the normalised SPOT signal, Boehringer light units (BLU); mean over the file's lines of this peptide stood at 64.1.

Molecule B16 returned a normalised SPOT signal, Boehringer light units (BLU); mean over the file's lines of this peptide of 234. Molecule B17 yielded a normalised SPOT signal, Boehringer light units (BLU); mean over the file's lines of this peptide of 192.

As for B18, the normalised SPOT signal, Boehringer light units (BLU); mean over the file's lines of this peptide is 2140. The result for B19 reads 110; that for B20, 36.2. Regarding B21, the normalised SPOT signal, Boehringer light units (BLU); mean over the file's lines of this peptide came out at 14100. B22 came in with a normalised SPOT signal, Boehringer light units (BLU); mean over the file's lines of this peptide of 1040.
